Key:
[1] = target: neuraminidase of A/Moscow/10/1999 (H3N2), recombinant head domain (Influenza A virus A/Moscow/10/1999 …, strain); assay: BLI; settings: both partners purified
[2] = target: neuraminidase of A/Wyoming/3/2003 (H3N2), recombinant head domain (Influenza A virus A/Wyoming/3/2003 …, UniProt Q595Z6, strain); assay: cell-based or functional assay
[3] = target: neuraminidase of A/Michigan/45/2015 (H1N1), recombinant head domain (Influenza A virus A/Michigan/45/2015 …, UniProt A0A0X9QTS2, strain); assay: ELISA; settings: one partner purified

B1: HB420 with all SHMs reverted (Fab) (Fab, V domains shown)
VH: EVQLVQSGAEVKKPGSSVKVSCKASGGTFSSYAISWVRQAPGQGLEWMGGIIPIFGTANYAQKFQGRVTITADESTSTAYMELSSLRSEDTAVYYCARDSLPYGDQNYYYGMHVWGQGTTVTVSS
VL: QSALTQPASVSGSPGQSITISCTGTSSDVGGYNYVSWYQQHPGKAPKLMIYDVSNRPSGVSNRFSGSKSGNTASLTISGLQAEDEADYYCSSYTSNYNLVFGGGTKLTVL
Q: For B1, which Kd [1] is on record?
A: Its Kd is 1.8 nM.

B2: HB420 (human IgG1) (antibody, V domains shown)
VH: EVQLVESGAEVKKPGSSVKVSCMASGGSFGSYGFSWVRQAPGQGLEWMGGIIPLFDTPNYAQKFQGRVTITADASTSTVYMELSSLRSEDTAVYYCARDSLPYGDQNYYYGMHVWGQGTTVTVSS
VL: QSALTQPASLSGSPGQSITISCSGSSSDIGDYNYVSWYQQHPGKAPKLIIYDVTNRPSGVSDRLSGSKSGTTASLTISGLQAEDEADYYCSSYGGNYNLVFGGGTKLTVL
Q: How did the “NA inhibition of recombinant NA by enzyme-linked lectin assay (ELLA), IC50” value [2] turn out when B2 was run?
A: The value was 0.19 µg/mL.

Q: Does B2 bind [3]?
A: Result: no binding

B3: HB420 with only heavy chain SHMs reverted (Fab) (Fab, V domains shown)
VH: EVQLVQSGAEVKKPGSSVKVSCKASGGTFSSYAISWVRQAPGQGLEWMGGIIPIFGTANYAQKFQGRVTITADESTSTAYMELSSLRSEDTAVYYCARDSLPYGDQNYYYGMHVWGQGTTVTVSS
VL: QSALTQPASLSGSPGQSITISCSGSSSDIGDYNYVSWYQQHPGKAPKLIIYDVTNRPSGVSDRLSGSKSGTTASLTISGLQAEDEADYYCSSYGGNYNLVFGGGTKLTVL
Q: How did the Kd [1] turn out when B3 was run?
A: Its Kd is 1.1 nM.

B4: HB420 with only light chain SHMs reverted (Fab) (Fab, V domains shown)
VH: EVQLVESGAEVKKPGSSVKVSCMASGGSFGSYGFSWVRQAPGQGLEWMGGIIPLFDTPNYAQKFQGRVTITADASTSTVYMELSSLRSEDTAVYYCARDSLPYGDQNYYYGMHVWGQGTTVTVSS
VL: QSALTQPASVSGSPGQSITISCTGTSSDVGGYNYVSWYQQHPGKAPKLMIYDVSNRPSGVSNRFSGSKSGNTASLTISGLQAEDEADYYCSSYTSNYNLVFGGGTKLTVL
Q: B4 was tested. Which Kd [1] did it give?
A: Its Kd is less than 1 nM.

B5: HB420 fragment antigen-binding (Fab) (Fab, V domains shown)
VH: EVQLVESGAEVKKPGSSVKVSCMASGGSFGSYGFSWVRQAPGQGLEWMGGIIPLFDTPNYAQKFQGRVTITADASTSTVYMELSSLRSEDTAVYYCARDSLPYGDQNYYYGMHVWGQGTTVTVSS
VL: QSALTQPASLSGSPGQSITISCSGSSSDIGDYNYVSWYQQHPGKAPKLIIYDVTNRPSGVSDRLSGSKSGTTASLTISGLQAEDEADYYCSSYGGNYNLVFGGGTKLTVL
Q: B5 was tested. Which Kd [1] did it give?
A: Its Kd is less than 1 nM.
